This data set concerns the molecule itself. Briefly: cross-linking.

B1: full-length Mycobacterium tuberculosis MmpL3 (natural protein)
chain: MFAWWGRTVYRYRFIVIGVMVALCLGGGVFGLSLGKHVTQSGFYDDGSQSVQASVLGDQVYGRDRSGHIVAIFQAPAGKTVDDPAWSKKVVDELNRFQQDHPDQVLGWAGYLRASQATGMATADKKYTFVSIPLKGDDDDTILNNYKAIAPDLQRLDGGTVKLAGLQPVAEALTGTIATDQRRMEVLALPLVAVVLFFVFGGVIAAGLPVMVGGLCIAGALGIMRFLAIFGPVHYFAQPVVSLIGLGIAIDYGLFIVSRFREEIAEGYDTETAVRRTVITAGRTVTFSAVLIVASAIGLLLFPQGFLKSLTYATIASVMLSAILSITVLPACLGILGKHVDALGVRTLFRVPFLANWKISAAYLNWLADRLQRTKTREEVEAGFWGKLVNRVMKRPVLFAAPIVIIMILLIIPVGKLSLGGISEKYLPPTNSVRQAQEEFDKLFPGYRTNPLTLVIQTSNHQPVTDAQIADIRSKAMAIGGFIEPDNDPANMWQERAYAVGASKDPSVRVLQNGLINPADASKKLTELRAITPPKGITVLVGGTPALELDSIHGLFAKMPLMVVILLTTTIVLMFLAFGSVVLPIKATLMSALTLGSTMGILTWIFVDGHFSKWLNFTPTPLTAPVIGLIIALVFGLSTDYEVFLVSRMVEARERGMSTQEAIRIGTAATGRIITAAALIVAVVAGAFVFSDLVMMKYLAFGLMAALLLDATVVRMFLVPSVMKLLGDDCWWAPRWARRLQTRIGLGEIHLPDERKRPVSNGRPARPPVTAGLVAARAAGDPRPPHDPTHPLAESPRPARSSPASSPELTPALEATAAPAAPSGASTTRMQIGSSTEPPTTRLAAAGRSVQSPASTPPPTPTPPSAPSAGQTRAMPLAANRSTDAAGDPAEPTAALPIIRSDGDDSEAATEQLNARGTSDKTRQRRRGGGALSAQDLLRREGRL
For the protein B1, the binding result is reported as “binds”.

(Values after paper PMC9335285 (Proceedings of the National Academy of Sciences of the …, 2022).)
